# From PMC6554949, “Arabidopsis thaliana organelles mimic the T7 phage DNA replisome with specific interactions between Twinkle protein and DNA polymerases Pol1A and Pol1B” (BMC Plant Biology, 2019)
# T1: polyhistidine-tagged Pol1B (recombinant, fluorescently labelled) (Arabidopsis thaliana, UniProt Q84ND9 56-1034, fluorescent dye RED-tris-NTA (Monolith His-Tag Labeling Kit) on the His tag)
# T1 construct: DNA polymerase 1B, Arabidopsis thaliana, At3g20540; also called his-tagged Pol1B; DNA polymerase 1B; source: recombinant, purified
# T1 sequence (looked up): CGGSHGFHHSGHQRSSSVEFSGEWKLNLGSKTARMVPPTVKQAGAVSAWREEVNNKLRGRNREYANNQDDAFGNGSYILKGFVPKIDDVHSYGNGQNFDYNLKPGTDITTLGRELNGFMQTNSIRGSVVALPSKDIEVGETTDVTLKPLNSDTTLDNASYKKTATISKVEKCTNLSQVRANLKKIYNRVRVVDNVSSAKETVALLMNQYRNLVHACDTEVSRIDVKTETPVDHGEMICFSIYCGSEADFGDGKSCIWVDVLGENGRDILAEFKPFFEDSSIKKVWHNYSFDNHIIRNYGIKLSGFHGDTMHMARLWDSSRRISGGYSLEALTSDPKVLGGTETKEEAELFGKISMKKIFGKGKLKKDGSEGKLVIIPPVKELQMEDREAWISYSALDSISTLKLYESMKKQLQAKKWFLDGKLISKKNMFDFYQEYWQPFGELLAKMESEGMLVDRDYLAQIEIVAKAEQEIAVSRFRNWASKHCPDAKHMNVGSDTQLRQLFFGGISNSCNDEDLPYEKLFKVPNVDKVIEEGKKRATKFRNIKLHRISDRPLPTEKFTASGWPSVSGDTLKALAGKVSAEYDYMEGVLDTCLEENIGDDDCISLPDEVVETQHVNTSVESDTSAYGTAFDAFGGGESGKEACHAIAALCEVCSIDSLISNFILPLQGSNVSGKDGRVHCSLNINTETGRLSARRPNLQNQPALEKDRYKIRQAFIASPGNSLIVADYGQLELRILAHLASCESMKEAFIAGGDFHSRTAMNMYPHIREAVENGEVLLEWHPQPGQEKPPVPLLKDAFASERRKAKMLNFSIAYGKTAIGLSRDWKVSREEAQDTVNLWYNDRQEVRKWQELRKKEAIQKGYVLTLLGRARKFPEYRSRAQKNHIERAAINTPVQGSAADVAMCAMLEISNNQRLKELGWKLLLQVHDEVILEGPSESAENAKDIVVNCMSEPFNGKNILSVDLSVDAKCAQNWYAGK
# Columns and labels:
# [1] = target: T7 primase-helicase (Escherichia phage T7) (UniProt P03692); conditions: cited from earlier work
# DnaE (Bacillus subtilis) = DnaE (Bacillus subtilis) (UniProt O34623); conditions: cited from earlier work
# [2] = target: T1, polyhistidine-tagged Pol1B …; assay: MST; His-tagged Pol1B labelled with RED-tris-NTA, constant 20 nM (10 nM in the results text); ligands in 16 serial dilutions; PBS + 0.05% Tween; Monolith NT.115p, 10% LED power, 50% MST power, standard capillaries; conditions: both partners purified
# Chain of T7 primase-helicase (Escherichia phage T7) (P03692 whole entry): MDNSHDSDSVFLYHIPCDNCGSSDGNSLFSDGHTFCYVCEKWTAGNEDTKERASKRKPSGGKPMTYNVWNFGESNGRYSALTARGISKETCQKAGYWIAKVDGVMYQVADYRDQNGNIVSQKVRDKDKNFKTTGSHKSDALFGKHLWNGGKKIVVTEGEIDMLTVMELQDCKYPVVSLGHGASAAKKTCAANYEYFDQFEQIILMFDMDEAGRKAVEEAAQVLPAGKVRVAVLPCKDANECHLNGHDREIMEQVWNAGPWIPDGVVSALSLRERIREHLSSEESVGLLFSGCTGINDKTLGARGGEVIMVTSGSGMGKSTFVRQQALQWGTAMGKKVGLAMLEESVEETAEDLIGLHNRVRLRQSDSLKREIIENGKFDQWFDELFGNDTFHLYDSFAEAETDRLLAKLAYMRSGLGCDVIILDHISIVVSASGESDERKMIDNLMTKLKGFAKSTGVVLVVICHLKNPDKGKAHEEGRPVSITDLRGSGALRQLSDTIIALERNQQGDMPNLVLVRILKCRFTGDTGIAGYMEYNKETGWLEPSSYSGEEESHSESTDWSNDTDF
# Chain of T7 DNA polymerase (P00581 whole entry): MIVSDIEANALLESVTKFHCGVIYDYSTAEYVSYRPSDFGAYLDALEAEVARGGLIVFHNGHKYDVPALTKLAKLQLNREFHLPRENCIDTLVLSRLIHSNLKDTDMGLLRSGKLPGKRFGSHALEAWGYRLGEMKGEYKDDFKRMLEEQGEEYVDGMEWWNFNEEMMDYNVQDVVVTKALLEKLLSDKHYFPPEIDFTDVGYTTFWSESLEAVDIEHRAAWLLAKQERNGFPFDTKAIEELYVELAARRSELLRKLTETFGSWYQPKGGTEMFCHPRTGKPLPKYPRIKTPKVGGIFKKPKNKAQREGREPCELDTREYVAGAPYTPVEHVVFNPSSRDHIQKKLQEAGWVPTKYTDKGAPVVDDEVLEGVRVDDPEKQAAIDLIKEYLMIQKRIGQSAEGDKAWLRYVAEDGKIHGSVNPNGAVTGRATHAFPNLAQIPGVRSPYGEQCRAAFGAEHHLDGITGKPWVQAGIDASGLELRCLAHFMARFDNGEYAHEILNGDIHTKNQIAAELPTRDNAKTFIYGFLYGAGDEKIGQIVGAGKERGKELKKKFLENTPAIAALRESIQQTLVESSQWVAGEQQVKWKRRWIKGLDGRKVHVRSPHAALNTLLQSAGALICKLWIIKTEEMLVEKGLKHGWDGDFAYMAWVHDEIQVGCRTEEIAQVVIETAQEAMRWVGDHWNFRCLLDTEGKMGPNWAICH
# Chain of DnaG primase (P05096 whole entry): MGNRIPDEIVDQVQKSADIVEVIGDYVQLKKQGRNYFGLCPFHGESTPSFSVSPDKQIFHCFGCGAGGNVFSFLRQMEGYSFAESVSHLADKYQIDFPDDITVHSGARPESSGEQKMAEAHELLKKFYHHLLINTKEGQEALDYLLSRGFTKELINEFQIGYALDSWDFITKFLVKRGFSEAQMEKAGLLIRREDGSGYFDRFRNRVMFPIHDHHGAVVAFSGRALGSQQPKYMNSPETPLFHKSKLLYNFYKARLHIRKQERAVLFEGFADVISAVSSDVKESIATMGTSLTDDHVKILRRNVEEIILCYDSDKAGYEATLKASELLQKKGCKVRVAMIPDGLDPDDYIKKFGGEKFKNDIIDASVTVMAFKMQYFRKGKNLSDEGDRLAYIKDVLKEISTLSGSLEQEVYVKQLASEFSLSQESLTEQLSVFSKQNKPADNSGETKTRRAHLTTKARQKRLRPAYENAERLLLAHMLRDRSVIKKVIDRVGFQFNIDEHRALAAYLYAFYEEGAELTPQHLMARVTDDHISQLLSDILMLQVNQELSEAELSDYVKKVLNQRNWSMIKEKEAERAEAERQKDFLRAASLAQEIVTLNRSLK
# Chain of DnaE (Bacillus subtilis) (O34623 whole entry): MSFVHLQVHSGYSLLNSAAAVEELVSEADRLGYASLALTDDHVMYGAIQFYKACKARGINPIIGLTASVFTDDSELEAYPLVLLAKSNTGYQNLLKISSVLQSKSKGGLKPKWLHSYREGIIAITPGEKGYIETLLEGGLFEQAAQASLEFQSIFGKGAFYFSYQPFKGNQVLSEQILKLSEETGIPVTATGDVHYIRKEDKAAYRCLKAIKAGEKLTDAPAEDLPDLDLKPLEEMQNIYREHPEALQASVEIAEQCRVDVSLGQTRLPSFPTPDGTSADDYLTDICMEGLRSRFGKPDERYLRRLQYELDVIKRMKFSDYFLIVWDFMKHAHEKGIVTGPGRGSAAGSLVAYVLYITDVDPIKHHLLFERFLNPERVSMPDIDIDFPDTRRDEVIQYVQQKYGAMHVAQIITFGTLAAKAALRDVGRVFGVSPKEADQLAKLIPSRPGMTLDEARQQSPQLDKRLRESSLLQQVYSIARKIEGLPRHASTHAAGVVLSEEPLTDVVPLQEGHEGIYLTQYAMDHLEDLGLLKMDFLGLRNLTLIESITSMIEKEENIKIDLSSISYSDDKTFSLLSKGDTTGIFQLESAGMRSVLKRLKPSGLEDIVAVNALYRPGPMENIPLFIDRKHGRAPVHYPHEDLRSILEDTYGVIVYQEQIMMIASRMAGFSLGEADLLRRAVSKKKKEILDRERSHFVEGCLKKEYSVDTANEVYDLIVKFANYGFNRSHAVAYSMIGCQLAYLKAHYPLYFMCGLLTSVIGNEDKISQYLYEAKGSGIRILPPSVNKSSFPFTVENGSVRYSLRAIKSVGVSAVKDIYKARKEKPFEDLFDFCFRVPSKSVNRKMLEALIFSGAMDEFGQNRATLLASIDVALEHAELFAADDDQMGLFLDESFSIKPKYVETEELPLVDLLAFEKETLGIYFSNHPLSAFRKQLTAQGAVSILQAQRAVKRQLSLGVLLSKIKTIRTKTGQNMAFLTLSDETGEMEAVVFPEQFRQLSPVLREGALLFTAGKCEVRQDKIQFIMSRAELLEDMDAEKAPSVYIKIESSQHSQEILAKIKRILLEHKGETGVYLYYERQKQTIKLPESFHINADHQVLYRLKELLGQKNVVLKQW
Molecule,Kd [2] [nM],other results
T7 DNA polymerase (from UniProt P00581),,Kd [1]: 440 nM
DnaG primase (from UniProt P05096),,Kd (DnaE (Bacillus subtilis)): 750 nM
"full-length Twinkle (recombinant, without histidine tag) (enzyme, Arabidopsis thaliana, UniProt B5X582 82-709, looked up, Twinkle, Arabidopsis thaliana, At1g30680; called full-length in the results and legend; the methods name 'Twinkle lacking the first 91 codons' as the template of the domain constructs; Used without a histidine tag; It may in fact be the form lacking the first 91 residues (92-709); also called the full-length protein) SSYNSIPRVPTPVDTEVEADKRVVLSRLVTLRRKLAEQGVDAENCPPGQHSGLICPTCEGGNSGEKSLSLFIAPDGSSATWNCFRGKCGLKGGVRADGGLASADPIEKVERKITVEGIELEPLCDEIQDYFAARAISRKTLERNRVMQKRIGDEIVIAFTYWQRGELVSCKYRSLTKMFFQERKTRRILYGLDDIEKTSEVIIVEGEIDKLAMEEAGFLNCVSVPDGAPAKVSSKEIPSEDKDTKYKFLWNCNDYLKKASRIVIATDGDGPGQAMAEEIARRLGKERCWRVKWPKKSEDEHFKDANEVLMSKGPHLLKEAILDAEPYPILGLFSFKDFFDEIDAYYDRTHGHEYGVSTGWKNLDNLYSVVPGELTVVTGIPNSGKSEWIDAMLCNLNHSVGWKFALCSMENKVRDHARKLLEKHIKKPFFDADYGRSVQRMSVEEKDEGKKWLNDTFYPIRCEMDSLPSIDWVLERAKAAVLRYGIRGLVIDPYNELDHQRTPRQTETEYVSQMLTKIKRFSQHHSCHVWFVAHPKQLQHWDGGAPNLYDISGSAHFINKCDNGIIVHRNRDENAGPLDLVQIGVRKVRNKVAGQIGDAYLCYDRTTGSYSDSPVTPGMPERRSPKRY",1260,
"Twinkle primase domain (residues 92-410) (domain or fragment, Arabidopsis thaliana, UniProt B5X582 92-410, looked up, Twinkle, Arabidopsis thaliana, At1g30680, primase domain, residues 92-410; Tag removed with PreScission protease; also called primase module) TPVDTEVEADKRVVLSRLVTLRRKLAEQGVDAENCPPGQHSGLICPTCEGGNSGEKSLSLFIAPDGSSATWNCFRGKCGLKGGVRADGGLASADPIEKVERKITVEGIELEPLCDEIQDYFAARAISRKTLERNRVMQKRIGDEIVIAFTYWQRGELVSCKYRSLTKMFFQERKTRRILYGLDDIEKTSEVIIVEGEIDKLAMEEAGFLNCVSVPDGAPAKVSSKEIPSEDKDTKYKFLWNCNDYLKKASRIVIATDGDGPGQAMAEEIARRLGKERCWRVKWPKKSEDEHFKDANEVLMSKGPHLLKEAILDAEPYPI",810,
"Twinkle helicase domain (401-709) (domain or fragment, Arabidopsis thaliana, UniProt B5X582 401-709, looked up, Twinkle, Arabidopsis thaliana, At1g30680, helicase domain, residues 401-709; Tags of the pCri-1b vector removed with TEV protease; also called helicase module; source: cloned into pCri-1b, purified (potassium phosphate pH 7.0 buffer)) AILDAEPYPILGLFSFKDFFDEIDAYYDRTHGHEYGVSTGWKNLDNLYSVVPGELTVVTGIPNSGKSEWIDAMLCNLNHSVGWKFALCSMENKVRDHARKLLEKHIKKPFFDADYGRSVQRMSVEEKDEGKKWLNDTFYPIRCEMDSLPSIDWVLERAKAAVLRYGIRGLVIDPYNELDHQRTPRQTETEYVSQMLTKIKRFSQHHSCHVWFVAHPKQLQHWDGGAPNLYDISGSAHFINKCDNGIIVHRNRDENAGPLDLVQIGVRKVRNKVAGQIGDAYLCYDRTTGSYSDSPVTPGMPERRSPKRY",1970,
"Twinkle zinc finger subdomain (residues 92-186) (domain or fragment, Arabidopsis thaliana, UniProt B5X582 92-186, looked up, Twinkle, Arabidopsis thaliana, At1g30680, zinc finger subdomain, residues 92-186; Tag removed with PreScission protease; also called Zn++ Finger domain; zf) TPVDTEVEADKRVVLSRLVTLRRKLAEQGVDAENCPPGQHSGLICPTCEGGNSGEKSLSLFIAPDGSSATWNCFRGKCGLKGGVRADGGLASADP",2170,
